Experimental data: article PMC2140025

Molecular target: F-actin (rat (endogenous in MTLn3)) (UniProt P60711)
Test: FLIP

tau of the slow FLIP component (assigned to F-actin-bound cofilin): 26 s
Substance: GFP-cofilin (from UniProt P45592 1-166) (natural protein)
